Results reported in patent US20020132350.

Target: MuA transposase (Bacteriophage Mu) (UniProt P07636)
Assay: cell_activity

Sequence of MuA transposase (Bacteriophage Mu) (P07636 whole entry): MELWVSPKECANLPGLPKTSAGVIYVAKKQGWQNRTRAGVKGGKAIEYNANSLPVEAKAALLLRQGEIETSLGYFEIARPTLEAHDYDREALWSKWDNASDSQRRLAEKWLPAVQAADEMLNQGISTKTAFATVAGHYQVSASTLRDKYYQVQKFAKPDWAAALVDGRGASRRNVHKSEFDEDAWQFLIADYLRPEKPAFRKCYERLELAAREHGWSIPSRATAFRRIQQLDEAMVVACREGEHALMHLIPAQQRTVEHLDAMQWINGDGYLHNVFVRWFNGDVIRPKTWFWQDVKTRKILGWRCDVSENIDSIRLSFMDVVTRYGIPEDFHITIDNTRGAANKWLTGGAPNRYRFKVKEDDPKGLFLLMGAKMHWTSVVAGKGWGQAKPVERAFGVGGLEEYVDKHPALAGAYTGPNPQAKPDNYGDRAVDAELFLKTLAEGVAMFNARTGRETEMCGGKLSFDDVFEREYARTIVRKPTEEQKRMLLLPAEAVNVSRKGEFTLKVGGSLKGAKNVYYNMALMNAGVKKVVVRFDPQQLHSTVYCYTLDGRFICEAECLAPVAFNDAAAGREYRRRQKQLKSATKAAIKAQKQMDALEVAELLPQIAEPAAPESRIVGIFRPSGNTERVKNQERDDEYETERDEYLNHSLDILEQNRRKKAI

Work on “PC-4 SpeI/BglII fragment (precleaved mini-Mu, inverted R1-R2-R3 ends flanking CAM)” yielded an activity (induced MuA (0.5 mM IPTG), replicate 204, uninduced 1 and 3) of 240 colonies and an activity (preformed CDC (25 mM HEPES pH 7.6, 130 mM NaCl, 10 mM MgCl2, 15% DMSO, 15% glycerol, 30 C 1 h) electroporated into E. coli, 16 blue, 4 white, fragment without …) of 20 colonies.

With “PC-4 SpeI/BglII fragment with attached lacZ-100 ssDNA navigator” the activity (same conditions, 26 blue, 5 white) was 31 colonies.

Substance “PC-4 fragment with lacZ-100 navigator via biotin/streptavidin” has an activity (biotin/streptavidin bridge, induced MuA, uninduced 0) of 58 colonies.
